Laboratory results: US20210388110A1 (published 2021)
Residue numbers refer to the chain shown, from its start.

B1: TR01H067-E22Hh/none-Hi-Kn010G3/L0212-k0 (antibody, human IgG1, kappa, L234A L235A, N297A)
heavy: QVQLVESGGGLVQPGRSLRLSCAASGFTFSNAWMHWVRQAPGKGLEWVAQIKDKSQNYATYYAESVKGRFTISRDDSKNSLYLQMNSLKTEDTAVYYCRYVHYAASYGVDAWGQGTTVTVSSASTKGPSVFPLAPSSKSTSGGTAALGCLVKDYFPEPVTVSWNSGALTSGVHTFPAVLQSSGLYSLSSVVTVPSSSLGTQTYICNVNHKPSNTKVDKKVEPKSCDKTHTCPPCPAPEAAGGPSVFLFPPKPKDTLMISRTPEVTCVVVDVSHEDPEVKFNWYVDGVEVHNAKTKPREEQYASTYRVVSVLTVLHQDWLNGKEYKCKVSNKALPAPIEKTISKAKGQPREPQVYTLPPSRCELTKNQVSLSCAVKGFYPSDIAVEWESNGQPENNYKTTPPVLDSDGSFFLVSKLTVDKSRWQQGNVFSCSVMHEALHNHYTQKSLSLSPDYKDDDDK
chain: EPKSSDKTHTCPPCPAPELLGGPSVFLFPPKPKDTLMISRTPEVTCVVVDVSHEDPEVKFNWYVDGVEVHNAKTKPREEQYNSTYRVVSVLTVLHQDWLNGKEYKCKVSNKALPAPIEKTISKAKGQPREPQVCTLPPSRDELTKNQVSLWCLVKGFYPSDIAVEWESNGQPENNYKTTPPVLDSDGSFFLYSKLTVDKSRWQQGNVFSCSVMHEALHNRYTQKSLSLSP
light: DIVMTQSPLSLPVTPGEPASISCRPSQSPVHSNRNTYLHWYQQKPGQAPRLLIYKVSNRFSGVPDRFSGSGSGTDFTLKISRVEAEDVGVYYCYQGTQVPYTFGQGTKLEIKRTVAAPSVFIFPPSDEQLKSGTASVVCLLNNFYPREAKVQWKVDNALQSGNSQESVTEQDSKDSTYSLSSTLTLSKADYEKHKVYACEVTHQGLSSPVTKSFNRGEC
notes: single-arm
B2: TR01H067-E22Hh/none-Hi-Kn010G3/L0262-k0 (antibody, human IgG1, kappa, L234A L235A, N297A)
heavy: B1 heavy
chain: B1 chain
light: B1 light with P25S, S28P, Y94A
notes: single-arm
B3: TR01H067-E22Hh/none-Hi-Kn010G3/TR01L016-k0 (antibody, human IgG1, kappa, L234A L235A, N297A)
heavy: B1 heavy
chain: B1 chain
light: B1 light with P25S, Q42L, A48S, R50Q
notes: single-arm
B4: TR01H067-E22Hh/none-Hi-Kn010G3/TR01L019-k0 (antibody, human IgG1, kappa, L234A L235A, N297A)
heavy: B1 heavy
chain: B1 chain
light: B1 light with R24Q, P25A, Q27E, Q42L, A48S, R50Q
notes: single-arm
B5: TR01H069-E22Hh/none-Hi-Kn010G3/L0000-k0 (antibody, human IgG1, kappa, L234A L235A, N297A)
heavy: B1 heavy with L11V, R16G, A111I
chain: B1 chain
light: B1 light with P25S, P29L, Y94G
notes: single-arm
B6: TR01H071-E22Hh/none-Hi-Kn010G3/L0000-k0 (antibody, human IgG1, kappa, L234A L235A, N297A)
heavy: B1 heavy with Q56N, D75A, L81I, A111I
chain: B1 chain
light: B1 light with P25S, P29L, Y94G
notes: single-arm
B7: TR01H071-E22Hh/none-Hi-Kn010G3/L0200-k0 (antibody, human IgG1, kappa, L234A L235A, N297A)
heavy: B1 heavy with Q56N, D75A, L81I, A111I
chain: B1 chain
light: B1 light with Y94G
notes: single-arm
B8: TR01H071-E22Hh/none-Hi-Kn010G3/L0215-k0 (antibody, human IgG1, kappa, L234A L235A, N297A)
heavy: B1 heavy with Q56N, D75A, L81I, A111I
chain: B1 chain
light: B1 light with P25S, S28P, L38I, Y94G
notes: single-arm
B9: TR01H071-E22Hh/none-Hi-Kn010G3/L0222-k0 (antibody, human IgG1, kappa, L234A L235A, N297A)
heavy: B1 heavy with Q56N, D75A, L81I, A111I
chain: B1 chain
light: B1 light with P25S, L38I, H39Q
notes: single-arm
B10: TR01H071-E22Hh/none-Hi-Kn010G3/L0226-k0 (antibody, human IgG1, kappa, L234A L235A, N297A)
heavy: B1 heavy with Q56N, D75A, L81I, A111I
chain: B1 chain
light: B1 light with P25S, L38I, Y94I
notes: single-arm
B11: TR01H072-E22Hh/none-Hi-Kn010G3/L0000-k0 (antibody, human IgG1, kappa, L234A L235A, N297A)
heavy: B1 heavy with D75A, L81I, A111I
chain: B1 chain
light: B1 light with P25S, P29L, Y94G
notes: single-arm
B12: TR01H073-E22Hh/none-Hi-Kn010G3/L0000-k0 (antibody, human IgG1, kappa, L234A L235A, N297A)
heavy: B1 heavy with A111I
chain: B1 chain
light: B1 light with P25S, P29L, Y94G
notes: single-arm
B13: TR01H074-E22Hh/none-Hi-Kn010G3/L0000-k0 (antibody, human IgG1, kappa, L234A L235A, N297A)
heavy: B1 heavy with L11V, R16G, D75A, L81I, A111I
chain: B1 chain
light: B1 light with P25S, P29L, Y94G
notes: single-arm
B14: TR01H076-E22Hh/none-Hi-Kn010G3/L0000-k0 (antibody, human IgG1, kappa, L234A L235A, N297A)
heavy: B1 heavy with L11V, R16G, D75A, L81I, A111Y
chain: B1 chain
light: B1 light with P25S, P29L, Y94G
notes: single-arm
B15: TR01H081-E22Hh/none-Hi-Kn010G3/L0000-k0 (antibody, human IgG1, kappa, L234A L235A, N297A)
heavy: B1 heavy with D75A, L81I, S106G, A111I
chain: B1 chain
light: B1 light with P25S, P29L, Y94G
notes: single-arm
B16: TR01H081-E22Hh/none-Hi-Kn010G3/L0011-k0 (antibody, human IgG1, kappa, L234A L235A, N297A)
heavy: B1 heavy with D75A, L81I, S106G, A111I
chain: B1 chain
light: B1 light with P25S, S28P, P29L, Y94G
notes: single-arm
B17: TR01H081-E22Hh/none-Hi-Kn010G3/L0201-k0 (antibody, human IgG1, kappa, L234A L235A, N297A)
heavy: B1 heavy with D75A, L81I, S106G, A111I
chain: B1 chain
light: B1 light with P25S, S28P, Y94G
notes: single-arm
B18: TR01H081-E22Hh/none-Hi-Kn010G3/L0262-k0 (antibody, human IgG1, kappa, L234A L235A, N297A)
heavy: B1 heavy with D75A, L81I, S106G, A111I
chain: B1 chain
light: B1 light with P25S, S28P, Y94A
notes: single-arm
B19: TR01H082-E22Hh/none-Hi-Kn010G3/L0000-k0 (antibody, human IgG1, kappa, L234A L235A, N297A)
heavy: B1 heavy with S106G
chain: B1 chain
light: B1 light with P25S, P29L, Y94G
notes: single-arm
B20: TR01H082-E22Hh/none-Hi-Kn010G3/L0011-k0 (antibody, human IgG1, kappa, L234A L235A, N297A)
heavy: B1 heavy with S106G
chain: B1 chain
light: B1 light with P25S, S28P, P29L, Y94G
notes: single-arm
B21: TR01H082-E22Hh/none-Hi-Kn010G3/L0201-k0 (antibody, human IgG1, kappa, L234A L235A, N297A)
heavy: B1 heavy with S106G
chain: B1 chain
light: B1 light with P25S, S28P, Y94G
notes: single-arm
B22: TR01H082-E22Hh/none-Hi-Kn010G3/L0203-k0 (antibody, human IgG1, kappa, L234A L235A, N297A)
heavy: B1 heavy with S106G
chain: B1 chain
light: B1 light with P25S, L38I, Y94G
notes: single-arm
B23: TR01H082-E22Hh/none-Hi-Kn010G3/L0212-k0 (antibody, human IgG1, kappa, L234A L235A, N297A)
heavy: B1 heavy with S106G
chain: B1 chain
light: B1 light
notes: single-arm
B24: TR01H082-E22Hh/none-Hi-Kn010G3/L0258-k0 (antibody, human IgG1, kappa, L234A L235A, N297A)
heavy: B1 heavy with S106G
chain: B1 chain
light: B1 light with P25S, S28P, Y94T
notes: single-arm
B25: TR01H082-E22Hh/none-Hi-Kn010G3/L0259-k0 (antibody, human IgG1, kappa, L234A L235A, N297A)
heavy: B1 heavy with S106G
chain: B1 chain
light: B1 light with P25S, L38I, Y94T
notes: single-arm
B26: TR01H082-E22Hh/none-Hi-Kn010G3/L0260-k0 (antibody, human IgG1, kappa, L234A L235A, N297A)
heavy: B1 heavy with S106G
chain: B1 chain
light: B1 light with Y94T
notes: single-arm
B27: TR01H082-E22Hh/none-Hi-Kn010G3/L0262-k0 (antibody, human IgG1, kappa, L234A L235A, N297A)
heavy: B1 heavy with S106G
chain: B1 chain
light: B1 light with P25S, S28P, Y94A
notes: single-arm
B28: TR01H082-E22Hh/none-Hi-Kn010G3/L0263-k0 (antibody, human IgG1, kappa, L234A L235A, N297A)
heavy: B1 heavy with S106G
chain: B1 chain
light: B1 light with P25S, L38I, Y94A
notes: single-arm
B29: TR01H082-E22Hh/none-Hi-Kn010G3/L0264-k0 (antibody, human IgG1, kappa, L234A L235A, N297A)
heavy: B1 heavy with S106G
chain: B1 chain
light: B1 light with Y94A
notes: single-arm
B30: TR01H082-E22Hh/none-Hi-Kn010G3/L0266-k0 (antibody, human IgG1, kappa, L234A L235A, N297A)
heavy: B1 heavy with S106G
chain: B1 chain
light: B1 light with P25S, S28P, Y94V
notes: single-arm
B31: TR01H082-E22Hh/none-Hi-Kn010G3/L0267-k0 (antibody, human IgG1, kappa, L234A L235A, N297A)
heavy: B1 heavy with S106G
chain: B1 chain
light: B1 light with Y94V
notes: single-arm
B32: TR01H082-E22Hh/none-Hi-Kn010G3/TR01L018-k0 (antibody, human IgG1, kappa, L234A L235A, N297A)
heavy: B1 heavy with S106G
chain: B1 chain
light: B1 light with R24Q, P25A, Q27E, Q42L, A48S, R50Q, Y94G
notes: single-arm
B33: TR01H082-E22Hh/none-Hi-Kn010G3/TR01L023-k0 (antibody, human IgG1, kappa, L234A L235A, N297A)
heavy: B1 heavy with S106G
chain: B1 chain
light: B1 light with P25S, Q42L, A48S, R50Q, Y94T
notes: single-arm
B34: TR01H082-E22Hh/none-Hi-Kn010G3/TR01L024-k0 (antibody, human IgG1, kappa, L234A L235A, N297A)
heavy: B1 heavy with S106G
chain: B1 chain
light: B1 light with R24Q, P25A, Q27E, Q42L, A48S, R50Q, Y94T
notes: single-arm
B35: TR01H083-E22Hh/none-Hi-Kn010G3/L0000-k0 (antibody, human IgG1, kappa, L234A L235A, N297A)
heavy: B1 heavy with Q56N, D75A, L81I, S106G, A111I
chain: B1 chain
light: B1 light with P25S, P29L, Y94G
notes: single-arm
B36: TR01H083-E22Hh/none-Hi-Kn010G3/L0011-k0 (antibody, human IgG1, kappa, L234A L235A, N297A)
heavy: B1 heavy with Q56N, D75A, L81I, S106G, A111I
chain: B1 chain
light: B1 light with P25S, S28P, P29L, Y94G
notes: single-arm

The binders below were run against T1, soluble human CD3ε chain (human, UniProt P07766 23-126, limits assumed) (assay: SPR (Biacore)).
T1 construct: the text says soluble human CD3ε chain; also called human CD3 epsilon chain
T1 sequence (P07766 23-126 limits assumed): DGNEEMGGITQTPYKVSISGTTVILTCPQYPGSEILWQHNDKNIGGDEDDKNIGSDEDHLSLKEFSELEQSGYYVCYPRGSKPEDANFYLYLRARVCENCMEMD

| Kd | Binder |
| --- | --- |
| 5.88 nM | B1 |
| 49.2 nM | B2 |
| 10.9 nM | B3 |
| 12.1 nM | B4 |
| 71.1 nM | B5 |
| 8.85 nM | B6 |
| 6.13 nM | B7 |
| 9.51 nM | B8 |
| 10.4 nM | B9 |
| 25.1 nM | B10 |
| 20.3 nM | B11 |
| 59.7 nM | B12 |
| 29.1 nM | B13 |
| 47.8 nM | B14 |
| 15.6 nM | B15 |
| 13.5 nM | B16 |
| 9.46 nM | B17 |
| 5.76 nM | B18 |

| Kd | Binder |
| --- | --- |
| 73.7 nM | B19 |
| 59.5 nM | B20 |
| 44.9 nM | B21 |
| 40.7 nM | B22 |
| 4.75 nM | B23 |
| 47 nM | B24 |
| 50.7 nM | B25 |
| 45.3 nM | B26 |
| 39.8 nM | B27 |
| 30.9 nM | B28 |
| 34.4 nM | B29 |
| 22.9 nM | B30 |
| 22.9 nM | B31 |
| 47.2 nM | B32 |
| 42.5 nM | B33 |
| 47.6 nM | B34 |
| 6.83 nM | B35 |
| 6.7 nM | B36 |
